This is an account of results in patent publication US20090023646A1, “GHRH analogues” (Centre Hospitalier de L'Universite de Montreal (CHUM), priority 2002, published 2009).

Read-outs that look alike come from different tables or passages of the source. Square brackets hold non-standard residues; d marks the D form. Ends that are not written are not given here.

Assay [1] concerns the target T1, rat GHRH receptor (rat, UniProt Q02644 23-464).
T1 construct: whole, on cells; Native tissue membrane preparation; In the in vivo study it is the receptor on rat pituitary somatotrophs; also called rat pituitary GHRH receptor
T1 sequence (looked up): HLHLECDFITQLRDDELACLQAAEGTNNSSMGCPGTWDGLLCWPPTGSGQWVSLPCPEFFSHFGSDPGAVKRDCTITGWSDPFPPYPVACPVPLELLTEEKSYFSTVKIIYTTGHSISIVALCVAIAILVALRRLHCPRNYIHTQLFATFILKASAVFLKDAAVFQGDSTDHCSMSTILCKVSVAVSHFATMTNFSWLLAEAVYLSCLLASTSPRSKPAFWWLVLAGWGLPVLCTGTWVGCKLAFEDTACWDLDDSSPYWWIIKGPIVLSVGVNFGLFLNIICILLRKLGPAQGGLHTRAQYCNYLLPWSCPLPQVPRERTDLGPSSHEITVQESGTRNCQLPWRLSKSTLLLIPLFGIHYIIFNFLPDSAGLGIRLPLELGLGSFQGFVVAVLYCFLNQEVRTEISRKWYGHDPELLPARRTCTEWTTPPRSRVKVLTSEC
The assay can be described thus: competition with [125I-Tyr10]hGHRH(1-44)-NH2, rat anterior pituitary membrane preparations.

Assay [2] concerns the target T2, human GHRH receptor (human, UniProt Q02643 23-423).
T2 construct: whole, on cells; Assayed in BHK cell membrane preparations (25 ug protein per tube), not on intact cells; also called hGHRH-R; hGHRH receptor
T2 sequence (looked up): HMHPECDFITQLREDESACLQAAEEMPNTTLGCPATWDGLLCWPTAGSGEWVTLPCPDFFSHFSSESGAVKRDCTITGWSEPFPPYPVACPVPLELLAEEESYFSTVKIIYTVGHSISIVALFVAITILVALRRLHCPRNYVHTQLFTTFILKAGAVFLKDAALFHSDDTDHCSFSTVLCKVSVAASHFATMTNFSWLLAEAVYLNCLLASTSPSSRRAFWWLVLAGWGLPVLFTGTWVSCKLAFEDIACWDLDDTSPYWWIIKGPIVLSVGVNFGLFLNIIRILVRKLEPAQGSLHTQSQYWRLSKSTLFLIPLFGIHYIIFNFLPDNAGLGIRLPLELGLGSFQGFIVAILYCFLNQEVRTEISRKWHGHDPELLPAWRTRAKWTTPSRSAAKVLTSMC
Kind of assay: competition with [125I-Tyr10]hGHRH(1-44)NH2, BHK cell membrane preparations expressing the human GHRH receptor. The method, then:
(§1) Incubation was carried out at equilibrium (23° C., 60 min) and stopped by centrifugation (12,000 g, 5 min, at 4° C.). The radioactivity content in pellets was determined by gamma counting. […] The Ligand computerized program was used to analyze competition curves of GHRH analogues reported in Tables 2 and 3 and to determine their IC₅₀ (Gaudreau P. et al. (1992) J Med Chem, 35: 1864-1869).
(§2) IC₅₀ is the concentration of peptide inhibiting 50% of ¹²⁵I-GHRH specific binding as determined by the LIGAND program for analysis of competition curves.

The target of assay [3] is T2, human GHRH receptor. The description is as above. The method, then: as §1, §2
This is another data set of the same source.

The target in assay [4] is T2, human GHRH receptor. Kind of assay: competition with [125I-Tyr10]hGHRH(1-44)NH2, BHK cell membrane preparations expressing the human GHRH receptor (reference peptide; its IC50 is not given). The method, then: as §1, §2

B1: [D-Ala2, Ala8, Ala15, Lys22] hGHRH(1-29)-NH2 (peptide)
peptide: Y[dA]DAIFTASYRKVLAQLSARKKLQDIMSR-NH2
modifications: N-terminus assumed
SMILES: CC[C@H](C)[C@H](NC(=O)[C@H](C)NC(=O)[C@H](CC(=O)O)NC(=O)[C@@H](C)NC(=O)[C@@H](N)Cc1ccc(O)cc1)C(=O)N[C@@H](Cc1ccccc1)C(=O)N[C@H](C(=O)N[C@@H](C)C(=O)N[C@@H](CO)C(=O)N[C@@H](Cc1ccc(O)cc1)C(=O)N[C@@H](CCCNC(=N)N)C(=O)N[C@@H](CCCCN)C(=O)N[C@H](C(=O)N[C@@H](CC(C)C)C(=O)N[C@@H](C)C(=O)N[C@@H](CCC(N)=O)C(=O)N[C@@H](CC(C)C)C(=O)N[C@@H](CO)C(=O)N[C@@H](C)C(=O)N[C@@H](CCCNC(=N)N)C(=O)N[C@@H](CCCCN)C(=O)N[C@@H](CCCCN)C(=O)N[C@@H](CC(C)C)C(=O)N[C@@H](CCC(N)=O)C(=O)N[C@@H](CC(=O)O)C(=O)N[C@H](C(=O)N[C@@H](CCSC)C(=O)N[C@@H](CO)C(=O)N[C@@H](CCCNC(=N)N)C(N)=O)[C@@H](C)CC)C(C)C)[C@@H](C)O
notes: Synthetic 29-residue amide; also called GHRH analogue #1; No. 1
A word on the IC50: it is the concentration at which inhibition is half-maximal. A low value points to inhibition by little substance. For the molecule B1, in assay [1], the “relative binding affinity in rat anterior pituitary (compared to hGHRH(1-29)-NH2)” value was 13.3 fold against hGHRH(1-29)-NH2. In assay [2], the half-maximal inhibitory concentration (IC50) worked out at 0.033 nM and the “relative binding affinity (R1) in comparison with hGHRH(1-29)NH2” value (“relative binding affinity (R1)” below) was 499 ratio IC50 of hGHRH(1-29)-NH2 / IC50 analogue.

B2: [Ala8, Ala9, Ala15, Ala22] hGHRH(1-29)-NH2 (peptide)
peptide: YADAIFTAAYRKVLAQLSARKALQDIMSR-NH2
notes: Synthetic 29-residue amide; also called GHRH analogue #2; No. 2
Consider B2, for which the “relative binding affinity in rat anterior pituitary (compared to hGHRH(1-29)-NH2)” value in assay [1] was 7.74 fold against hGHRH(1-29)-NH2. Besides, in assay [2], the IC50 amounted to 0.77 nM and the “relative binding affinity (R1)” value is 3.7 ratio IC50 of hGHRH(1-29)-NH2 / IC50 analogue.

B3: [D-Ala2, D-Tyr10, Lys22] hGHRH(1-29)-NH2 (peptide)
peptide: Y[dA]DAIFTNS[dY]RKVLGQLSARKKLQDIMSR-NH2
modifications: N-terminus assumed
SMILES: CC[C@H](C)[C@H](NC(=O)[C@H](C)NC(=O)[C@H](CC(=O)O)NC(=O)[C@@H](C)NC(=O)[C@@H](N)Cc1ccc(O)cc1)C(=O)N[C@@H](Cc1ccccc1)C(=O)N[C@H](C(=O)N[C@@H](CC(N)=O)C(=O)N[C@@H](CO)C(=O)N[C@H](Cc1ccc(O)cc1)C(=O)N[C@@H](CCCNC(=N)N)C(=O)N[C@@H](CCCCN)C(=O)N[C@H](C(=O)N[C@@H](CC(C)C)C(=O)NCC(=O)N[C@@H](CCC(N)=O)C(=O)N[C@@H](CC(C)C)C(=O)N[C@@H](CO)C(=O)N[C@@H](C)C(=O)N[C@@H](CCCNC(=N)N)C(=O)N[C@@H](CCCCN)C(=O)N[C@@H](CCCCN)C(=O)N[C@@H](CC(C)C)C(=O)N[C@@H](CCC(N)=O)C(=O)N[C@@H](CC(=O)O)C(=O)N[C@H](C(=O)N[C@@H](CCSC)C(=O)N[C@@H](CO)C(=O)N[C@@H](CCCNC(=N)N)C(N)=O)[C@@H](C)CC)C(C)C)[C@@H](C)O
notes: Synthetic 29-residue amide; also called GHRH analogue #3; No. 3
For B3, the “relative binding affinity in rat anterior pituitary (compared to hGHRH(1-29)-NH2)” value in assay [1] was 4.9 fold against hGHRH(1-29)-NH2. Further, in assay [2], the IC50 came out at 0.0063 nM and the “relative binding affinity (R1)” value was 239 ratio IC50 of hGHRH(1-29)-NH2 / IC50 analogue.

B4: [D-Ala2, D-Tyr10, D-Ala15, Lys22] hGHRH(1-29)-NH2 (peptide)
peptide: Y[dA]DAIFTNS[dY]RKVL[dA]QLSARKKLQDIMSR-NH2
modifications: also: acetate salt
notes: also called GHRH analogue #5; human GHRH analogue #5
Turning to B4, in assay [1], the “relative binding affinity in rat anterior pituitary (compared to hGHRH(1-29)-NH2)” value is 1.04 fold against hGHRH(1-29)-NH2. Also, the IC50 in assay [3] worked out at 0.0012 nM. In assay [2], the IC50 was found to be 0.006 nM and the “relative binding affinity (R1)” value was 939 ratio IC50 of hGHRH(1-29)-NH2 / IC50 analogue.

B5: human GHRH(1-29)NH2 (peptide)
peptide: YADAIFTNSYRKVLGQLSARKLLQDIMSR-NH2
notes: also called hGHRH(1-29)NH2; hGHRH(1-29)-NH2
As for B5, the binding result in assay [4] is “binds”.

B6: [D-Ala2, Ala8, D-Tyr10, Ala15, D-Lys21, Lys22] hGHRH(1-29)-NH2 (peptide)
peptide: Y[dA]DAIFTAS[dY]RKVLAQLSAR[dK]KLQDIMSR-NH2
modifications: N-terminus assumed
SMILES: CC[C@H](C)[C@H](NC(=O)[C@H](C)NC(=O)[C@H](CC(=O)O)NC(=O)[C@@H](C)NC(=O)[C@@H](N)Cc1ccc(O)cc1)C(=O)N[C@@H](Cc1ccccc1)C(=O)N[C@H](C(=O)N[C@@H](C)C(=O)N[C@@H](CO)C(=O)N[C@H](Cc1ccc(O)cc1)C(=O)N[C@@H](CCCNC(=N)N)C(=O)N[C@@H](CCCCN)C(=O)N[C@H](C(=O)N[C@@H](CC(C)C)C(=O)N[C@@H](C)C(=O)N[C@@H](CCC(N)=O)C(=O)N[C@@H](CC(C)C)C(=O)N[C@@H](CO)C(=O)N[C@@H](C)C(=O)N[C@@H](CCCNC(=N)N)C(=O)N[C@H](CCCCN)C(=O)N[C@@H](CCCCN)C(=O)N[C@@H](CC(C)C)C(=O)N[C@@H](CCC(N)=O)C(=O)N[C@@H](CC(=O)O)C(=O)N[C@H](C(=O)N[C@@H](CCSC)C(=O)N[C@@H](CO)C(=O)N[C@@H](CCCNC(=N)N)C(N)=O)[C@@H](C)CC)C(C)C)[C@@H](C)O
notes: Synthetic 29-residue amide; also called GHRH analogue #4; No. 4
On to B6, for which, in assay [1], the “relative binding affinity in rat anterior pituitary (compared to hGHRH(1-29)-NH2)” value is 5 fold against hGHRH(1-29)-NH2. Also, in assay [2], the IC50 was 37 nM and the “relative binding affinity (R1)” value is 0.05 ratio IC50 of hGHRH(1-29)-NH2 / IC50 analogue.
